Experimental data as given in article PMC11245102 (bioRxiv, 2024).
Several values for one entry are separate records, joined by “and”; a condition that tells them apart may be missing. Equal values may be shown once.

Key:
[1] = biological target: type II CS from C. woesi (C. woesi); experiment: mass photometry
[2] = biological target: citrate synthase from M. sulfidovorans W150A (M. sulfidovorans); experiment: mass photometry
[3] = biological target: CS from a Myxococcota species (type III CS) (a Myxococcota species); experiment: mass photometry
[4] = biological target: non-mitochondrial CS (nmCS) from Chlamydomonas reinhardtii (Chlamydomonas reinhardtii); experiment: mass photometry
[5] = biological target: non-mitochondrial CS (nmCS) from Ananas comosus (Ananas comosus); experiment: mass photometry
[6] = biological target: non-mitochondrial CS (nmCS) from Ananas comosus (Ananas comosus); experiment: mass photometry; remark: listed apart in the source
[7] = biological target: non-mitochondrial CS (nmCS) from Ananas comosus (Ananas comosus); experiment: cryo-EM structure
[8] = biological target: non-mitochondrial CS (nmCS) from C. fasciculata (C. fasciculata); experiment: mass photometry
[9] = biological target: type III CS from Cyanobium sp. PCC 7001 (Cyanobium sp. PCC 7001); experiment: mass photometry
[10] = biological target: type II CS from F. taffensis (F. taffensis); experiment: mass photometry
mass photometry = biological target: the molecule itself; experiment: mass photometry

## type II CS from C. woesi (enzyme)
[1]
  stoichiometry N: 2

## citrate synthase from M. sulfidovorans W150A (enzyme)
[2]
  stoichiometry N: 2

## CS from a Myxococcota species (type III CS) (enzyme)
[3]
  stoichiometry N: 2

## non-mitochondrial CS (nmCS) from Chlamydomonas reinhardtii (enzyme)
[4]
  stoichiometry N: 2

## non-mitochondrial CS (nmCS) from Ananas comosus (enzyme)
[5]
  stoichiometry N: 6 and 8
[6]
  stoichiometry N: 8
[7]
  stoichiometry N: 8

## non-mitochondrial CS (nmCS) from C. fasciculata (enzyme)
[8]
  stoichiometry N: 6

## type III CS from Cyanobium sp. PCC 7001 (enzyme)
[9]
  stoichiometry N: 2

## type II CS from F. taffensis (enzyme)
[10]
  stoichiometry N: 2

B1: CS from A. comosus Δ487–513 (domain or fragment)
chain: MEGAFDHSALARARLAVLSGHLAAVSAAGGGASPLERSPVSVQEIPPPPRNLGGSLAVIDGRSGKKFEFKISDEGTVRATDFKKITTGKNDKGLKLYDPGYLNTAPVRSSICYIDGDEGILRYRGYPIEELAESSSYPEVAYLLMYGNLPSKSQLADWEFAISQHSAVPQGVLDIIQGMPHDAHPMGVLVCAMSALSVFHPDANPALRGQDLYKSKQLRDKQIVRILGKVPTIAAAAYLRLAGRPPVLPSNNFSYSENFLYMLDSLGNRSYKPNTRLARVLDILFILHAEHEMNCSTAAARHLASSGVDVFTALAGAVGALYGPLHGGANEAVLKMLNEIGTVENIPDFIEGVKNRKRKMSGFGHRVYKNYDPRAKVIRKLAEEVFSIVGRDPLIEVAIALEKAALSDEYFIKRKLYPNVDFYSGLIYRAMGFPTEFFPVLFAIPRMAGYLAHWRESLDDPDTKIMRPQQVYTGVWLRHYTPLQER
Mass photometry
  stoichiometry N: 2

B2: non-mitochondrial CS (nmCS) from P. olsenii (enzyme)
chain: MDRLNTVAAHVAPTLTITDNRSGKKIDVKVKDGTIRATDLKQLGIQTYDPGYMNTTCCVSRISFIDGNRGVLRYRGYPIEQLAQDSSFTEVAFLLQYGELPTRGQLTQWEQDLMRHSMLHQDVATLTSAFRYDAHPMGMFVSAMAALGTLHPETNPALTSQNIYKDKAVRNKEIARILGSATTLAAMAYRHRMGRPFNTPNSDLGYTENFLYMLDVSHEGTSYRPHPKLVKALDVLFVLHAEHELNCSTSAMRHLTSSNVDVYTACAAAAGALYGPRHGGANEAVLRMLERIGSIENVPTFVDKVKQRKELLMGFGHRVYKHYDPRATIVRKIAEDVFEICGREPLIEVAMDLERIALSDPYFKDRKLYPNVDFYSGLIYKAMGFPTDMFPILFTVPRLAGWLAHWSEWIDDPENRIYRPFQVYKGYDKRDYVQVDERSEKVHSKELTVKRSAFNRRRDASLQSAAADRSEYEWIKD
Mass photometry
  stoichiometry N: 6
